From patent US9061070B2, “Treating stroke and other diseases without inhibiting N-type calcium channels” (NoNO, Inc., priority 2007, dated 2015)

Biological target: T1, chemokine CXCR2 (IL-8Rb) (Homo sapiens, UniProt P25025)
T1 sequence (P25025 1-360): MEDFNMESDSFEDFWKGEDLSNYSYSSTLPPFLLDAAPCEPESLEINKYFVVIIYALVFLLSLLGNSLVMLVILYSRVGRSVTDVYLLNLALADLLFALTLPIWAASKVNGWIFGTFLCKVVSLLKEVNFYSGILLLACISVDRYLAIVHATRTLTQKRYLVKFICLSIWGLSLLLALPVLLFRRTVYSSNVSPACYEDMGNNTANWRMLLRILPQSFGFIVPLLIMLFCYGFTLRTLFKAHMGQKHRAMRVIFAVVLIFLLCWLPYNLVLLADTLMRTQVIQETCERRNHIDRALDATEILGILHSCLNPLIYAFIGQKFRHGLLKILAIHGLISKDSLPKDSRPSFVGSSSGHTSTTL
Experiment: Competitive radioligand binding screen, IL-8/IL-8RB
Settings: 10 μM peptide

Sequence: YGRKKRRQRRRKLSSIESDV [Tat-NR2B9c, reference compound]
- inhibition of IL-8/IL-8RB: 80%
